One block for each molecule: values may come before it.
Tests used:
purified αvβ6 = purified αvβ6 (Homo sapiens, UniProt P06756+P18564); experiment: Binding assay on purified integrins; settings: purified αvβ6, up to 1 µM
[1] = Small animal PET/CT imaging, H2009 tumor bearing mice; type: in vivo, NOD/SCID mice; settings: NOD/SCID, mouse, iv, total radioactivity
[2] = system: H2009 (αvβ6^+) xenografts; experiment: as above; type: in vivo, NOD/SCID mice; settings: for Tumor uptake / Tumor/Lung: H2009 tumor bearing mice, n = 3; for Tumor uptake: quantitative PET, mean ± s.d.; for Tumor/Lung: ratio of PET uptakes
[3] = Small animal PET/CT imaging, H460 tumor bearing mice; type: in vivo, NOD/SCID mice; settings: NOD/SCID, mouse, iv, total radioactivity
H460 (αvβ6^-) xenografts = experiment: as above; type: in vivo, NOD/SCID mice; settings: H460 tumor bearing mice, quantitative PET, mean ± s.d., n = 3
[4] = biological target: αvβ6 integrin-positive H2009 human NSCLC cells (Homo sapiens, UniProt P06756+P18564); experiment: Peptide competition assay: inhibition of H2009.1 peptide phage binding to cells
αvβ6 integrin-positive H2009 human NSCLC cells, sequence (P18564 22-788): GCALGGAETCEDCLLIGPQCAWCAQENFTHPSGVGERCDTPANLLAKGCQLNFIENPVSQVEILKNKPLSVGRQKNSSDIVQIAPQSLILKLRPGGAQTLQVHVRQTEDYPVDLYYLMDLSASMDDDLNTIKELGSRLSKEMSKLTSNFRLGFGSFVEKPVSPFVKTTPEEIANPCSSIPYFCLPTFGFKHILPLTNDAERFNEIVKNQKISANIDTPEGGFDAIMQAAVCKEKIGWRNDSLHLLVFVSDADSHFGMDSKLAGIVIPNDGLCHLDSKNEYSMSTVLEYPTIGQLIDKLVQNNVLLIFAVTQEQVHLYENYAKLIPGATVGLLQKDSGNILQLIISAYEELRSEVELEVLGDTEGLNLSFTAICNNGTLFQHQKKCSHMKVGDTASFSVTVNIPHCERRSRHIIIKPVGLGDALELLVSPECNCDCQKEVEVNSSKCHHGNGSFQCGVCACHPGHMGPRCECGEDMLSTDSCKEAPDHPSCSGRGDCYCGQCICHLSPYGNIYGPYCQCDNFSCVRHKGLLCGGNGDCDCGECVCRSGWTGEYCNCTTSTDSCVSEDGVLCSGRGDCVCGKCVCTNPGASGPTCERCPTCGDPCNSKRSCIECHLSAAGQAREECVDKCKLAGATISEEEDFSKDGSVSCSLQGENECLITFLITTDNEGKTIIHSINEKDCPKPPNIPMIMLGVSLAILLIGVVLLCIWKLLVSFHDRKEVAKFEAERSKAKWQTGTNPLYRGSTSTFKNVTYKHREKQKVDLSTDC
αvβ6 integrin-positive H2009 human NSCLC cells, sequence (P06756 891-1048): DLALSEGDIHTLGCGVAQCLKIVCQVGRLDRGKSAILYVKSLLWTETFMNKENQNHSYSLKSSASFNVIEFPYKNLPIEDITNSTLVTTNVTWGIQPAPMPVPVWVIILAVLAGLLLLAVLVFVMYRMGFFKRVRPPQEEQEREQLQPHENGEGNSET
αvβ6 integrin-positive H2009 human NSCLC cells, sequence (P06756 31-889): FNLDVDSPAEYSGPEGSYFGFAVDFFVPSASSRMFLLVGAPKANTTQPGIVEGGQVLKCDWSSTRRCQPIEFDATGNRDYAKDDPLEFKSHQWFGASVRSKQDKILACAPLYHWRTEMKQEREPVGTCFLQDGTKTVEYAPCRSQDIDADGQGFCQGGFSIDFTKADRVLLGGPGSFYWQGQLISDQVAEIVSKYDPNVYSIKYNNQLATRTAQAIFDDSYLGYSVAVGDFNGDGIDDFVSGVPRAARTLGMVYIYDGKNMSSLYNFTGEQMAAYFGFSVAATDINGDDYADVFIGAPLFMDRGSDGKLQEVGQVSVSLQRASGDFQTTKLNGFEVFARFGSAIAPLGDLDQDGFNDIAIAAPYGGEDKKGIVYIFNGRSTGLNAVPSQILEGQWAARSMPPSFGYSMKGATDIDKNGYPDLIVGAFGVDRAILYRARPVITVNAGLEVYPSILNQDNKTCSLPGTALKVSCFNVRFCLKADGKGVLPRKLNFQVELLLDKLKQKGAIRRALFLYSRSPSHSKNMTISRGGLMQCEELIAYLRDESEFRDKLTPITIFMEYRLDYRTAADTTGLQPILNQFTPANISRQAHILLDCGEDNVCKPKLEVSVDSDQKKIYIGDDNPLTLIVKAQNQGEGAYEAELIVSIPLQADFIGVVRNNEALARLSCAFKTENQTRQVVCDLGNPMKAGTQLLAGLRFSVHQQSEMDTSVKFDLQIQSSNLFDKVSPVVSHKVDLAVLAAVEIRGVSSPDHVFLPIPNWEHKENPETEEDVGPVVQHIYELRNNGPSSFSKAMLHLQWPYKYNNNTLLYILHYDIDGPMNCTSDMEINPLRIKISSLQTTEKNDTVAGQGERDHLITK

purified αvβ6, sequence (P06756 31-992 limits assumed): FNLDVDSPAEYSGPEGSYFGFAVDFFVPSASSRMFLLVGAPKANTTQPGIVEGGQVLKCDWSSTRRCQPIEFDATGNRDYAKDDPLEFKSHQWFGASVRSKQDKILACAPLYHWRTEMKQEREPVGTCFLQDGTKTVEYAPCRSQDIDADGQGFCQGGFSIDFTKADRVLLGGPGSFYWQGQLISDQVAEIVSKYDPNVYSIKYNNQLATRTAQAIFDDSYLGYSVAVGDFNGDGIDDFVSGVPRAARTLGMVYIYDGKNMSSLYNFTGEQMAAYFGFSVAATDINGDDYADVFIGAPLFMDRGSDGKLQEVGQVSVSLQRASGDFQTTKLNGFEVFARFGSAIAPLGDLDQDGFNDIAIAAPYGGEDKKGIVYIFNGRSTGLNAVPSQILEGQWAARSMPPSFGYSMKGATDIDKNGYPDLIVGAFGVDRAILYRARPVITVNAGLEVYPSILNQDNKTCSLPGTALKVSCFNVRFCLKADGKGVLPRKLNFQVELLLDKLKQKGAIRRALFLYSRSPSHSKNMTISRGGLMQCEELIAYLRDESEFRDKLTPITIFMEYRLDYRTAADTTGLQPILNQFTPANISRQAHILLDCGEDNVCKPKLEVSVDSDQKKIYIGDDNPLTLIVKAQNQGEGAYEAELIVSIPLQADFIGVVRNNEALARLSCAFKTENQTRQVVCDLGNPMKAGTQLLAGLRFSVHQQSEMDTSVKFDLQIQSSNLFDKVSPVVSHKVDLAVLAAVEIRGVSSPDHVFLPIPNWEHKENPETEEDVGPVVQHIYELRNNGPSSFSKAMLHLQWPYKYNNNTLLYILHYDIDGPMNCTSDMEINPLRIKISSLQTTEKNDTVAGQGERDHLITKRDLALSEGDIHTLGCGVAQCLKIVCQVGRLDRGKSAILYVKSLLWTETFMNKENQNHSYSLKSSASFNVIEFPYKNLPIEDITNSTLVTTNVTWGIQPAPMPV
purified αvβ6, sequence (P18564 22-707 limits assumed): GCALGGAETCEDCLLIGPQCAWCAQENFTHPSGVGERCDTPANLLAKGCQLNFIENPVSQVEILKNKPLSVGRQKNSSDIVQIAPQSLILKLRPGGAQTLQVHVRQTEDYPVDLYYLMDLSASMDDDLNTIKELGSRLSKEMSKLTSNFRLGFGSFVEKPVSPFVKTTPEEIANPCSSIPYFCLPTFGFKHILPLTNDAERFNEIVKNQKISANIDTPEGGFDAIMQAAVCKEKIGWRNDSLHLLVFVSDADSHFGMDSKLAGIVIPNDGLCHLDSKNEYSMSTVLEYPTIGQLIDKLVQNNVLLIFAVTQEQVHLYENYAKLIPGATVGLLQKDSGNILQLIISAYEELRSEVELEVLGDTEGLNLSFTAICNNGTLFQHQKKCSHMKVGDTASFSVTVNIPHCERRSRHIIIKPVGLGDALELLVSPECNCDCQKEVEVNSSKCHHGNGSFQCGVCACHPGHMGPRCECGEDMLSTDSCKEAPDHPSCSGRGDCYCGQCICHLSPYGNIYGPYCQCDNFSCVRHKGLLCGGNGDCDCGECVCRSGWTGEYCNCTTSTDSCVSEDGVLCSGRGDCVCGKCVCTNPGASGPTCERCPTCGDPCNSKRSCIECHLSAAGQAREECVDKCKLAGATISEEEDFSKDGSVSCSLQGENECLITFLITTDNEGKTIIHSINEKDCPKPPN

binding to αvβ6 (purified αvβ6): no detectable binding
SMILES: N=C(N)NCCC[C@@H]1NC(=O)[C@H](CCCCN)NC(=O)[C@@H](Cc2ccc(O)cc2)NC(=O)[C@H](CC(=O)O)NC(=O)CNC1=O [cRGDyK]

SMILES: CC(=O)N[C@@H](CCCNC(=N)N)C(=O)NCC(=O)N[C@@H](CC(=O)O)C(=O)N[C@@H](CC(C)C)C(=O)N[C@@H](C)C(=O)N[C@H](C(=O)N[C@@H](CC(C)C)C(=O)N[C@@H](CCCNC(=N)N)C(=O)N[C@@H](CCC(N)=O)C(=O)N[C@@H](CC(C)C)C(=O)NCCOCCOCCOCCOCCOCCOCCOCCOCCOCCOCCOCCOCCC(=O)N[C@@H](CSC1CC(=O)N(CCC(=O)NCCCC[C@H](NC(=O)CCN2C(=O)CC(SC[C@H](NC(=O)CCOCCOCCOCCOCCOCCOCCOCCOCCOCCOCCOCCOCCNC(=O)[C@H](CC(C)C)NC(=O)[C@H](CCC(N)=O)NC(=O)[C@H](CCCNC(=N)N)NC(=O)[C@H](CC(C)C)NC(=O)[C@@H](NC(=O)[C@H](C)NC(=O)[C@H](CC(C)C)NC(=O)[C@H](CC(=O)O)NC(=O)CNC(=O)[C@H](CCCNC(=N)N)NC(C)=O)[C@@H](C)O)C(N)=O)C2=O)C(=O)NCCC(=O)N[C@@H](CSC2CC(=O)N(CCNC(=O)CCC(C(=O)O)N3CCCN4CCN(CCCN(CC(=O)O)CC4)CC3)C2=O)C(N)=O)C1=O)C(N)=O)[C@@H](C)O (some centres unmarked) [^64Cu-AcD10, metal not drawn]
tissue uptake at 1 h ([1]; heart): 0.78 ± 0.05 %ID/g
tissue uptake at 24 h ([1]; heart): 0.21 ± 0.01 %ID/g
tissue uptake at 1 h ([1]; kidney): 18.8 ± 2.2 %ID/g
tissue uptake at 4 h ([1]; kidney): 19.1 ± 3.3 %ID/g
tissue uptake at 24 h ([1]; kidney): 5.4 ± 0.87 %ID/g
tissue uptake at 1 h ([1]; liver): 1.08 ± 0.11 %ID/g
tissue uptake at 4 h ([1]; liver): 0.72 ± 0.09 %ID/g
tissue uptake at 24 h ([1]; liver): 0.55 ± 0.1 %ID/g
tissue uptake at 1 h ([1]; lung): 1.33 ± 0.23 %ID/g
tissue uptake at 4 h ([1]; lung): 0.65 ± 0.03 %ID/g
tissue uptake at 24 h ([1]; lung): 0.34 ± 0.08 %ID/g
tissue uptake at 1 h ([1]; muscle): 0.83 ± 0.14 %ID/g
tissue uptake at 4 h ([1]; muscle): 0.42 ± 0.05 %ID/g
tissue uptake at 24 h ([1]; muscle): 0.32 ± 0.1 %ID/g
Tumor uptake ([2]; 1 h p.i.): 1.46 ± 0.15 %ID/g
Tumor/Lung ([2]; 1 h p.i.): 1.1 ± 0.27
Tumor uptake ([2]; 4 h p.i.): 0.98 ± 0.01 %ID/g
Tumor/Lung ([2]; 4 h p.i.): 1.51 ± 0.03
Tumor uptake ([2]; 24 h p.i.): 0.68 ± 0.02 %ID/g
Tumor/Lung ([2]; 24 h p.i.): 2.0 ± 0.08
tumor uptake increase as compared to 64Cu-M10 ([2]; H2009 tumor, all three time points (1 h, 4 h, 24 h p.i.)): ~3 fold
tissue uptake at 1 h ([3]; heart): 0.82 ± 0.05 %ID/g
tissue uptake at 4 h ([3]; heart): 0.5 ± 0.04 %ID/g
tissue uptake at 24 h ([3]; heart): 0.26 %ID/g
tissue uptake at 1 h ([3]; kidney): 19.5 ± 0.36 %ID/g
tissue uptake at 4 h ([3]; kidney): 18.4 ± 0.92 %ID/g
tissue uptake at 24 h ([3]; kidney): 3.43 ± 1.8 %ID/g
tissue uptake at 1 h ([3]; liver): 1.13 ± 0.15 %ID/g
tissue uptake at 4 h ([3]; liver): 0.95 ± 0.06 %ID/g
tissue uptake at 24 h ([3]; liver): 0.71 ± 0.04 %ID/g
tissue uptake at 1 h ([3]; lung): 1.02 ± 0.06 %ID/g
tissue uptake at 4 h ([3]; lung): 0.65 ± 0.02 %ID/g
tissue uptake at 24 h ([3]; lung): 0.24 ± 0.1 %ID/g
tissue uptake at 1 h ([3]; muscle): 0.61 ± 0.12 %ID/g
tissue uptake at 4 h ([3]; muscle): 0.35 ± 0.05 %ID/g
tissue uptake at 24 h ([3]; muscle): 0.19 ± 0.13 %ID/g
Tumor uptake (H460 (αvβ6^-) xenografts; 1 h p.i.): 0.73 ± 0.13 %ID/g
Tumor uptake (H460 (αvβ6^-) xenografts; 4 h p.i.): 0.45 ± 0.11 %ID/g
Tumor uptake (H460 (αvβ6^-) xenografts; 24 h p.i.): 0.35 ± 0.05 %ID/g

SMILES: CC(C)C[C@H](NC(=O)[C@H](CCC(N)=O)NC(=O)[C@H](CCCNC(=N)N)NC(=O)[C@H](CC(C)C)NC(=O)[C@@H](NC(=O)[C@H](C)NC(=O)[C@H](CC(C)C)NC(=O)[C@H](CC(=O)O)NC(=O)CNC(=O)[C@@H](N)CCCNC(=N)N)[C@@H](C)O)C(=O)NCCOCCOCCOCCOCCOCCOCCOCCOCCOCCOCCOCCOCCC(=O)N[C@@H](CSC1CC(=O)N(CCNC(=O)CCC(C(=O)O)N2CCCN3CCN(CCCN(CC(=O)O)CC3)CC2)C1=O)C(N)=O (some centres unmarked) [H2-M10]
IC50 [4]: 4.5 nM
